Percent of TcdA1-bound cells that are GFP positive data for one substance are collected here from article PMC9631961.

This test deals with Vsg-GFP fusion protein (D. melanogaster Vsg, transiently expressed in U2OS cells) (Drosophila melanogaster). Briefly: immunostaining of cells or tissue.

For the substance “TcdA1 (TcA subunit of the Photorhabdus luminescens Tc toxin pTc) (from UniProt Q9RN43 1-2516) (natural protein)”, the percent of TcdA1-bound cells that are GFP positive is 96%.
